From US20030073629A1, “Omi and domains thereof that disrupt IAP-caspase interaction” (priority 2001, published 2003)
Substitutions are numbered along the chain they refer to. Names and notes keep the numbering of the source.

B1: Smac: mitochondrial IAP-binding protein; recombinant mature form with C-terminal His6 tag (protein, UniProt Q9NR28 22-239, looked up)
Diablo IAP-binding …: LCVPVVANFKKRCFSELIRPWHKTVTIGFGVTLCAVPIAQKSEPHSLSSEALMRRAVSLVTDSTSTFLSQTTYALIEAITEYTKAVYTLTSLYRQYTSLLGKMNSEEEDEVWQVIIGARAEMTSKHQEYLKLETTWMTAVGLSEMAAEAAYQTGADQASITARNHIQLVKLQVEEVHQLSRKAETKLAEAQIEELRQKTQEEGEERAESEQEAYLRED
modifications: C-terminal His6 tag
B2: Omi-S306A: recombinant mature Omi with active site Ser306 mutated to Ala, C-terminal His6 tag (protein)
chain: AVPSPPPASPRSQYNFIADVVEKTAPAVVYIEILDRHPFLGREVPISNGSGFVVAADGLIVTNAHVVADRRRVRVRLLSGDTYEAVVTAVDPVADIATLRIQTKEPLPTLPLGRSADVRQGEFVVAMGSPFALQNTITSGIVSSAQRPARDLGLPQTNVEYIQTDAAIDFGNAGGPLVNLDGEVIGVNTMKVTAGISFAIPSDRLREFLHRGEKKNSSSGISGSQRRYIGVMMLTLSPSILAELQLREPSFPDVQHGVLIHKVILGSPAHRAGLRPGDVILAIGEQMVQNAEDVYEAVRTQSQLAVQIRRGRETLTLYVTPEVTEHHHHHH
B3: Omi-ΔAVPS: recombinant mature Omi with deletion of the AVPS motif, C-terminal His6 tag (protein)
chain: PPPASPRSQYNFIADVVEKTAPAVVYIEILDRHPFLGREVPISNGSGFVVAADGLIVTNAHVVADRRRVRVRLLSGDTYEAVVTAVDPVADIATLRIQTKEPLPTLPLGRSADVRQGEFVVAMGSPFALQNTITSGIVSSAQRPARDLGLPQTNVEYIQTDAAIDFGNSGGPLVNLDGEVIGVNTMKVTAGISFAIPSDRLREFLHRGEKKNSSSGISGSQRRYIGVMMLTLSPSILAELQLREPSFPDVQHGVLIHKVILGSPAHRAGLRPGDVILAIGEQMVQNAEDVYEAVRTQSQLAVQIRRGRETLTLYVTPEVTEHHHHHH
B4: AAAS: C-terminal Flag-tagged Omi precursor mutant with the AVPS motif mutated to AAAS (protein, UniProt O43464 1-458, looked up, variant V135A P136A)
chain: MAAPRAGRGAGWSLRAWRALGGIRWGRRPRLTPDLRALLTSGTSDPRARVTYGTPSLWARLSVGVTEPRACLTSGTPGPRAQLTAVTPDTRTREASENSGTRSRAWLAVALGAGGAVLLLLWGGGRGPPAVLAAAASPPPASPRSQYNFIADVVEKTAPAVVYIEILDRHPFLGREVPISNGSGFVVAADGLIVTNAHVVADRRRVRVRLLSGDTYEAVVTAVDPVADIATLRIQTKEPLPTLPLGRSADVRQGEFVVAMGSPFALQNTITSGIVSSAQRPARDLGLPQTNVEYIQTDAAIDFGNSGGPLVNLDGEVIGVNTMKVTAGISFAIPSDRLREFLHRGEKKNSSSGISGSQRRYIGVMMLTLSPSILAELQLREPSFPDVQHGVLIHKVILGSPAHRAGLRPGDVILAIGEQMVQNAEDVYEAVRTQSQLAVQIRRGRETLTLYVTPEVTE
modifications: full-length C-terminal Flag tag
B5: Omi precursor: C-terminally Flag-tagged full-length Omi precursor (SEQ ID NO:1) expressed from a transfected construct (protein, listed as Homo sapiens)
chain: B4 chain with A135V, A136P
modifications: C-terminal Flag tag
B6: active site Omi precursor mutant: S306A Omi precursor with mutant VVAS sequence instead of the AVPS motif (protein, UniProt O43464 1-458, looked up, variant A134V P136A S306A)
chain: B4 chain with A134V, A135V, S306A
modifications: full-length

Columns and labels:
GST-BIR3-E314S mutant = target: T1, GST-BIR3-E314S mutant (Homo sapiens, UniProt P98170, E314S); assay: Interaction of purified recombinant proteins with GST-BIR3-E314S mutant; type: binding; conditions: purified C-terminal His6-tagged recombinant protein
T1 construct: Omi associates directly with the BIR3 domain of XIAP
T1 sequence (P98170 238-358 E314S limits assumed): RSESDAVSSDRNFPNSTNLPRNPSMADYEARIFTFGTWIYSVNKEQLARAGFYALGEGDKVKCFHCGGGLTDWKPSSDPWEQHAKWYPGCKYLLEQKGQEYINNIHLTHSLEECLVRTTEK
Source text: (§1) FIGS. 7A and 7B are scanned images of Coomassie stained gels representing SDS-PAGE analysis of purified C-terminal His6-tagged recombinant wild type mature Omi (WT), Omi-ΔAVPS, Omi-S306A, and mature Smac (7A) and recombinant Omi and Smac proteins with GST-BIR1, GST-BIR2, GST-BIR3, or GST-BIR3-E314S fusion proteins (7B).
To confirm that Omi associates directly with the BIR3 domain of XIAP but not with the Smac protein, Smac was depleted from the 293 extracts using a Smac monoclonal antibody. Specifically, 293 cellular extracts were either left untreated (undepleted lane of FIG. 4) or depleted with a Smac antibody (lane depleted of FIG. 4). The undepleted and depleted extracts were incubated with the GST-BIR3 protein and the bound proteins were eluted as above. The eluates were then analyzed by far-western blotting with ^35S-XIAP and by western blotting with the Smac antibody as described above (see FIG. 4, left and right panels, respectively). […] The last lane of each panel in FIG. 4 represents the 293 cellular extracts that were bound to the E314S mutant GST-BIR3 fusion protein. […] The asterisk in FIG. 4 indicates non-specific bands and the arrow indicates the IgG band. […]

[1] = system: GST-BIR1, 2 fusion protein; assay: Interaction of purified recombinant proteins with GST-BIR1, 2 fusion protein; type: binding, human; conditions: purified C-terminal His6-tagged recombinant protein
Chain of GST-BIR1, 2 fusion protein (P98170 124-240 limits assumed): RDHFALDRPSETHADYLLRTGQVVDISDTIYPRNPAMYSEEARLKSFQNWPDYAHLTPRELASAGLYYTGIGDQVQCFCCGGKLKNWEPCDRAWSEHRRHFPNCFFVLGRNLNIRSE
Source text: as §1
(§2) To determine whether a recombinant Omi lacking the first 133 residues (mature Omi) can interact with the GST-BIR3 fusion protein, this protein was expressed with a C-terminal His6 tag in bacteria and purified to apparent homogeneity (see FIG. 7B). […] FIGS. 7A and 7B show scanned images of Coomassie stained gels representing SDS-PAGE analysis of purified C-terminal His6-tagged recombinant wild type mature Omi (WT), Omi-ΔAVPS, Omi-S306A, and mature Smac (FIG. 7A) and recombinant Omi and Smac proteins with GST-BIR1, 2, GST-BIR3 or GST-BIR3-E314S fusion proteins (FIG. 7B).

[2] = target: T2, GST-BIR3 fusion protein (BIR3 domain of human XIAP) (Homo sapiens, UniProt P98170); assay: Interaction of purified recombinant proteins with GST-BIR3 fusion protein (SDS-PAGE, Coomassie); type: binding; conditions: purified C-terminal His6-tagged recombinant protein; wild type GST-BIR3
T2 construct: Omi associates directly with the BIR3 domain of XIAP
T2 sequence (P98170 238-358 limits assumed): as the sequence (P98170 238-358 E314S limits assumed) above, with S77E counted along it
Source text: as §1, §2

[3] = target: T3, caspase-9 interaction with XIAP (procaspase-3 activation) (Homo sapiens, UniProt P98170); assay: Procaspase-3 activation in XIAP-containing S100 extracts stimulated with cytochrome c and dATP; type: biochemical; conditions: S100 extracts with purified XIAP, cytochrome c plus dATP; 10, 50 or 300 ng protein
T3 construct: caspase-9: endogenous in 293T/HEK293 S100 extract
T3 sequence (P98170 whole entry): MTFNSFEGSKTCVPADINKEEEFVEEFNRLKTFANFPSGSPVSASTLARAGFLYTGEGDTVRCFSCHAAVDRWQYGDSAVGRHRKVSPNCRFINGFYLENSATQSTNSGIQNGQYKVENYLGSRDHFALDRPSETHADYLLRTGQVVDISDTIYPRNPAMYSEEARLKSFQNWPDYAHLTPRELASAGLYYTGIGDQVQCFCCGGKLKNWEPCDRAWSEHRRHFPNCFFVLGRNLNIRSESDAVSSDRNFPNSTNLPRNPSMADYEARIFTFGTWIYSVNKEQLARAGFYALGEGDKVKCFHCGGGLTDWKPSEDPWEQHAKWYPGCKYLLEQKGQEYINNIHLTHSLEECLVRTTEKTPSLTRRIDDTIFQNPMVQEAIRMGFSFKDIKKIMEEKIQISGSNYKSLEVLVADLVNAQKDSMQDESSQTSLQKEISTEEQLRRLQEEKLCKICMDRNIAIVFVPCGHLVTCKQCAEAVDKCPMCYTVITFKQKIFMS
Description: FIG. 17 is a scanned image of an autoradiogram, representing SDS-PAGE analysis of ^35S-labeled procaspase-3 following stimulation of 293T S100 extracts (20μg) mixed with purified XIAP (50 ng) with cytochrome c (0.5 μg) plus dATP (1 mM), in the presence of increasing amounts (10, 50, or 300 ng, respectively) of purified mature WT Omi, Omi-ΔAVPS, Omi-S306A, or mature Smac in 10 μl reaction volume. In the fifth lane, S100 extracts were incubated with. 300 ng of WT Omi without XIAP.
Next, it was determined whether Omi, like Smac, promotes caspase-9 activity in HEK293 S100 extracts in the presence of XIAP. To measure the caspase-9 activity in these extracts, ^35S-labeled procaspase-3 was added to the S100 extracts and stimulated the extracts with cytochrome c and dATP. […] These observations indicate that Omi, like Smac, is able to disrupt the interaction of caspase-9 with XIAP in the S100 extracts to promote procaspase-3 activation.

endogenous XIAP = target: T4, endogenous XIAP (Homo sapiens, UniProt P98170); assay: Co-immunoprecipitation with endogenous XIAP in transfected 293T cells; type: cell-based; conditions: 293T cells transfected with C-terminal Flag-tagged Omi precursors, XIAP western blot
T4 construct: endogenous in cells; host or cells: 293T cells
T4 sequence (P98170 whole entry): as above
Source text: FIG. 9 is a scanned image of a blot representing western blot analysis using an XIAP monoclonal antibody (upper panel) or Flag antibody (middle panel) of 293T cells transfected with constructs encoding C-terminal Flag-tagged Omi wild type or mutant precursors and immunoprecipitated with Flag antibody. The lower panel is a scanned image of a blot representing total extracts probed with the XIAP antibody. Arrows indicate IgG bands.

Hela cells = assay: Staurosporine-induced apoptosis of Hela cells transfected with Omi precursor; type: cell-based, human; conditions: for apoptosis potentiation compared to vector-transfected cells: staurosporine, indicated or higher doses
Description: FIG. 18 is a bar graphic representation of the percentages of GFP-positive apoptotic HeLa cells following treatment with the indicated doses of staurosporine for five hours, 24 hours after transfection. The Hela cells were transfected with an empty vector or a construct encoding a C-terminally Flag-tagged Omi precursor together with pEGFP-N1 plasmid (Clontech) at a 4:1 ratio. The AVPS motif in the […] Omi precursor is mutated to a VVAS sequence (SEQ ID NO:10) to prevent binding to IAPs. The Insert represents the expression of mature Omi wild type and Omi S306A mutant in the transfected cells as determined by immunoblotting with Flag antibody.
To determine whether release of Omi can potentiate apoptosis, human Hela cells were transfected with the Omi precursor, and the cells were stimulated with different doses of staurosporine.

Molecule | interaction with GST-BIR3 fusion protein [2] | promotion of procaspase-3 activation [3] | apoptosis potentiation compared to vector-transfected cells (Hela cells; five hours) | other results
B1 | able to interact equally with the wild type GST-BIR3 protein |  |  | interaction with GST-BIR3-E314S mutant (GST-BIR3-E314S mutant): not with the GST-BIR3-E314S mutant; interaction with GST-BIR1, 2 fusion protein [1]: able to interact with the GST-BIR1, 2 fusion protein
B2 | did not affect its interaction with GST-BIR3 | able to promote procaspase-3 activation in the XIAP-containing S100 extracts almost to the same extent as Smac |  | 
B3 | completely abolished its interaction with the GST-BIR3 fusion protein | abolished its caspase-promoting activity |  | 
B4 |  |  |  | interaction with endogenous XIAP in vivo (endogenous XIAP): abolished its interaction with endogenous XIAP
B5 |  |  | increased apoptosis was observed | transfected cells showing signs of apoptosis (Hela cells; 500 nM staurosporine, five hours, 24 hours after transfection, vector transfected cells ~20%): ~43%; induction of apoptosis (Hela cells; transiently expressed, absence of staurosporine): did not induce apoptosis
B6 |  |  | No apoptosis potentiation was observed | 
